In the nanobody polyreactivity screen of Harvey et al. (2022):

Experiment: yeast display, Sf9 membrane polyspecificity reagent, FACS + sequencing; frameworks hold sequencing errors
Method in brief: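 Using colony PCR, genes from sorted yeast display clones were amplified, then sequenced on MiSeq at 2 × 250 and filtered by CDR length. The clones had been stained with 10% biotinylated, detergent-solubilized Sf9 membrane reagent for 1 hour at 4 °C and sorted by FACS into low and high (top ~1%) gates on anti-HA and streptavidin fluorescence. Polyreactivity labels come from the gate of origin.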

Sequence: QVQLVESGGGLVQAGGRLRLICAASGSTFRANIMRWSRQAPGKERELVAAITSGGGSTYYADSVKGRFTISRDNAKNTVYLQMNSLKPEDTAVYYCAARIYHDIDTRSYYWGQGTQVTVSS
- polyreactivity (PSR sort gate): high polyreactivity

Sequence: QVQLQESGGGLVQAGGSLRLSCAVSGTIFFPLDMGWYRQAPGREREYVAAIAEGTSTYYADSVKGRFTISRDNAKNTVYPQMYSLNPEDTAVYYCAAYRSTPQQFHYWGQGTQVTVSS
- polyreactivity (PSR sort gate): high polyreactivity

Sequence: QVQLVESGGGLVQAGGILRLSCAASGRIFFPNAMGWFRQAPGKERELVASISRGTSTNYADSVKGRVTISRDNAKNTVYLQMHSLKPEDTAVYYCAAKSAPYFGGRSRYAYWGQGTQVTVSS
- polyreactivity (PSR sort gate): low polyreactivity

Sequence: QVQLVESGGGLVQAGGSLRLSCAASGSIFWYNAMGWYRQAPGKERELVAAISVGGGSTSSADSVKGRFTISRDNAKNTVYLQMHSLKPEDTAVYYCNSVRYYRLFAHYGEYGYWGQGTQVTVSS
- polyreactivity (PSR sort gate): high polyreactivity

Sequence: QVQLVESGGGLVQAGGSLRLSCVASGRIFLTYAMGWYRQAPGKERELVAAISYSGASTYYADSVKGRFTISRDNAKNTVYLQMNSLKPEDTAVYYCATERVGTPRMNYWGQGTQVTLSS
- polyreactivity (PSR sort gate): high polyreactivity

Sequence: QVQLVESGGGLDQSGGSLSLSCAASGSNFRLNAMGWSRQAPGKETELVAAISYRGGSTNYADSVKGRFTISRDNAKNTVYLQMNILKPEDTAVYYCAANIYRSSGQCMDYWGQGTEVTVSS
- polyreactivity (PSR sort gate): low polyreactivity

Sequence: QVQLQETGGGLVQAGGSLRQSCAASRSISPWSYMGRYRQAPGKEREFVASINAGTNTYYADSAKGRITISRDNAKNTVYLQMNSLKPEDTAAYYCAARYWNDYYFPYWGQGTEVTVSS
- polyreactivity (PSR sort gate): low polyreactivity

Sequence: QVQLVESGGGLVQAGGSLRLSCAASGGIISSYVMGWYRQAPGKERELVAAISRSGGSTYYADSVKGRFTISRDNAKNTVYLQMNSLKPEDTAVYFCAAVLQTRYNYWGQGTQVTVSS
- polyreactivity (PSR sort gate): high polyreactivity

Sequence: QVQLVESGGGLVQAGGSLRLSCAASGLTFLGNAMGWYRQAPGKERELVASITFSGDSTYYADSVKGRFTISRDNAKNSVYLQMNSVKPEDTAVYYCAADGSRLYYWPFEYDYWGQGTQVTVSS
- polyreactivity (PSR sort gate): low polyreactivity

Sequence: QVQLVESGGGLVQAGGSLRLSCAASGSILWENAMGWYRQAPGKERELVATISVSGGGTYYADSVKGRFTISRDNAKNTVYLQMNSLKPEDTAVYYCNARYGNESQGWEDYWGQGTQVTVSS
- polyreactivity (PSR sort gate): low polyreactivity

Sequence: QVQLVESGGGIVQAGGSLRLTCAASGFIFWDYAMGWYRQAPGKERELVAAISDSGGDTYYADSVKGRFTISRDNAKNTVYLQMNSLNPEDTAVYYCASVVELWVFRGQQYDYWGQGTQVTVSS
- polyreactivity (PSR sort gate): low polyreactivity

Sequence: QVQLVESGGGLVQAGGSLRLSCAASGSIDGRYAMGWYRQAPGKERELVAVITSGGSTNYADSVKGRFTISRDNAKNTVYLQMKSLKPEDTAVYYCAVRPYALHRLADQPGGDDYWGQGTQVTVSS
- polyreactivity (PSR sort gate): low polyreactivity

Sequence: QVQLVESGRGLVQAGGSLRLSCAACGSIFVYNDRGCYRQAPGKERELVAAISASGGRTYSADSVKGRFTISRDNAKNTVYLQMNSLKPEDTAVYYCAKDWLWGPEYDYWGQGTQVTVSS
- polyreactivity (PSR sort gate): low polyreactivity

Sequence: QVQLVESGGGLVKAGGSLRLSSDASGSISKSYAMGWYRQAPGKERELVAVITSGGNTYYADSVKGRFTISRDNAKNTVYLQMNSLKPEDTAVYYCAAKSGRGRTMDYWGQGTQVTVSS
- polyreactivity (PSR sort gate): high polyreactivity

Sequence: QVQLVESGGGLVQAGGSLRLSCAASGIIFYGNVMGWYRQAPGKERELVAAITSTGSTSYADSVKGRFTMSRDNGKNTVYLQMNSLKPEDTAVYYCAADNAVWEYDYWGQGTQVTVSS
- polyreactivity (PSR sort gate): low polyreactivity

Sequence: QVQLVESGGGLVQAGGSLRLSCAASGSIFYHYAMGWYRQAPGKERELVAGITSSGDRTHYADSVKGRFTISRDNAKNSVYLQMNSLKPEDTAVYYCNTATIHGTAYDYWGQGTQVTVSS
- polyreactivity (PSR sort gate): low polyreactivity

Sequence: QVQLVESGGGLVQAGGSLRLSCAASGRTFYGNTMGWYIQAPGKERELVAAITRSGGSTYYADSVKGRFTISRDNAKNTVYFQMNSLKPEDTAVYYCAASRTYYAPYGYWGQGTQVTVSS
- polyreactivity (PSR sort gate): high polyreactivity

Sequence: QVQLVESGGGLVQAGGSLRLSCAASGRIFVASAMGWYRQAPGKERELVAAISKTGGSTYYADSVKGRFTISRDNAKKTVYLQMNSLKPEDTAVYYCAADVYRRFDYWGQGTQVTVSS
- polyreactivity (PSR sort gate): low polyreactivity

Sequence: QVQLVESGGGLVQAGGSLRLSCAASGSIFGYYAMGWYTLAPGKERELVASISFSGGSTYYADSVKGRFTISRDNAKNTVYLQMNSLKPEDTAVYYCAKRPRFVYWKHGYWGQGTQVTVSS
- polyreactivity (PSR sort gate): high polyreactivity

Sequence: QVQLVESGGGLVQPGGSLRLSCAASGSIFTRNAMGWYRQAPGKERELVAAITKRGGSTYYADSVKGRFTISRDNAKNTVYLQMNSLKPEETAVYSCAADVYKYKHTQEYHVGRMDYWGQGTQVTVSS
- polyreactivity (PSR sort gate): low polyreactivity

Sequence: QVQLVESGGGLVQAGGSLRLSCAASGITFDGYAMGWYRQAPGKERELVAAITYSGGRTYYADSVKGRFTISRDNAKNTVYLQMNSLKPEDTAVYYCAVVSRRLYDYDYWGQGTQVTVSS
- polyreactivity (PSR sort gate): high polyreactivity

Sequence: QVQLVESGGGLVQAGGSLRLSCAASGSTFTIYAMGWYRQAPGTERELVATIRAGGGRTSYADSVKGRFTISRDNAKNTVYLQMNSLKPEDTAVYYCAVYVRPTRYGYWGQGTQVTVSS
- polyreactivity (PSR sort gate): high polyreactivity
